Measured values reported in the Immune Epitope Database (IEDB).

Columns and labels:
HLA-C*15:02 = assay: IEDB peptide-MHC binding, purified MHC/direct/fluorescence; filed as Kd, often an IC50 or EC50 that approximates it; ≥ and ≤ were set here for values at or beyond the usual limits of such assays
HLA-A*02:01 [1] = assay: IEDB peptide-MHC binding, purified MHC/competitive/fluorescence; filed as Kd, often an IC50 or EC50 that approximates it; ≥ and ≤ were set here for values at or beyond the usual limits of such assays
HLA-A*01:01 = assay: IEDB peptide-MHC binding, purified MHC/direct/fluorescence; filed as Kd, often an IC50 or EC50 that approximates it; ≥ and ≤ were set here for values at or beyond the usual limits of such assays; conditions: source organism: Influenza A virus (A/duck/Vietnam/15/2003(H5N1))
HLA-A*02:01 [2] = assay: as above
HLA-A*03:01 = assay: as above
HLA-A*26:01 = assay: as above
HLA-A*68:02 = assay: as above
HLA-A*69:01 [3] = assay: as above
HLA-B*07:02 = assay: as above; conditions: source organism: Influenza A virus (A/duck/Vietnam/15/2003(H5N1))
HLA-B*08:03 = assay: as above; conditions: source organism: Influenza A virus(A/swine/Shandong/fZC/2003(H9N2))
HLA-B*15:01 = assay: as above
HLA-B*15:17 = assay: as above
HLA-B*18:01 = assay: as above
HLA-B*27:05 = assay: as above; conditions: source organism: Influenza A virus (A/duck/Vietnam/15/2003(H5N1))
HLA-B*39:01 = assay: as above
HLA-B*40:01 = assay: as above; conditions: source organism: Influenza A virus (A/duck/Vietnam/15/2003(H5N1))
HLA-B*46:01 = assay: as above
HLA-B*57:01 = assay: as above
HLA-B*58:01 = assay: as above; conditions: source organism: Influenza A virus (A/duck/Vietnam/15/2003(H5N1))
HLA-A*30:01 = assay: IEDB peptide-MHC binding, purified MHC/competitive/fluorescence; filed as Kd, often an IC50 or EC50 that approximates it; ≥ and ≤ were set here for values at or beyond the usual limits of such assays; conditions: source organism: Influenza A virus (A/X-31(H3N2))
HLA-B*48:01 = assay: as above
HLA-A*02:03 = assay: IEDB peptide-MHC binding, purified MHC/direct/fluorescence; filed as Kd, often an IC50 or EC50 that approximates it; ≥ and ≤ were set here for values at or beyond the usual limits of such assays
HLA-A*02:12 = assay: as above
HLA-A*02:16 = assay: as above
HLA-A*02:19 = assay: as above
HLA-B*27:03 = assay: as above
HLA-A*02:11 = assay: as above
HLA-A*24:03 = assay: as above
HLA-A*29:02 = assay: as above; conditions: source organism: Bacillus anthracis str. 'Ames Ancestor'
HLA-B*51:01 = assay: as above
HLA-C*05:01 = assay: as above; conditions: source organism: human gammaherpesvirus 4
HLA-A*69:01 [4] = assay: IEDB peptide-MHC binding, purified MHC/competitive/fluorescence; filed as Kd, often an IC50 or EC50 that approximates it; ≥ and ≤ were set here for values at or beyond the usual limits of such assays; conditions: source organism: human gammaherpesvirus 4
HLA-B*15:42 = assay: as above
HLA-B*45:06 = assay: as above
HLA-B*83:01 = assay: as above
HLA-C*04:01 = assay: as above; conditions: source organism: human gammaherpesvirus 4
HLA-C*14:02 = assay: as above; conditions: source organism: Yellow fever virus
[5] = source organism: Camelpox virus CMS
[6] = source organism: Influenza A virus (A/duck/Vietnam/15/2003(H5N1))
[7] = source organism: Encephalitozoon cuniculi GB-M1
[8] = source organism: Bacillus anthracis str. 'Ames Ancestor'
[9] = source organism: human gammaherpesvirus 4
[10] = source organism: Yellow fever virus
[11] = source organism: Burkholderia mallei ATCC 23344
[12] = source organism: Vibrio vulnificus YJ016

Work on IVIEAIHTV yielded a Kd (HLA-C*15:02; [5]) of 0.341 µM and a Kd (HLA-A*02:01 [1]; [5]) of 0.0021 µM.
SHEGEGIPL showed a Kd (HLA-A*01:01) of at least 20 µM, a Kd (HLA-A*02:01 [2]; [6]) of at least 20 µM and a Kd (HLA-A*03:01; [6]) of at least 20 µM. The Kd (HLA-A*26:01; source organism: Influenza A virus(A/swine/Shandong/fZC/2003(H9N2))) was at least 20 µM, the Kd (HLA-A*68:02; [6]) was at least 20 µM and the Kd (HLA-A*69:01 [3]; [6]) was at least 20 µM. The Kd (HLA-B*07:02) was at least 20 µM, the Kd (HLA-B*08:03) was at least 20 µM and the Kd (HLA-B*15:01; [6]) was at least 20 µM. For the same sequence, the Kd (HLA-B*15:17; [6]) was at least 20 µM, the Kd (HLA-B*18:01; [6]) was at least 20 µM and the Kd (HLA-B*27:05) was at least 20 µM. The Kd (HLA-B*39:01; [6]) was 0.0995 µM, the Kd (HLA-B*40:01) was at least 20 µM and the Kd (HLA-B*46:01; [6]) was at least 20 µM. For the same sequence, the Kd (HLA-B*57:01; [6]) was at least 20 µM, the Kd (HLA-B*58:01) was at least 20 µM and the Kd (HLA-A*30:01) was at least 20 µM. The Kd (HLA-B*48:01; source organism: Influenza A virus (A/X-31(H3N2))) was at least 20 µM.
With RNMSRIFPY the Kd (HLA-A*02:03; [7]) was at least 20 µM, the Kd (HLA-A*02:12; [7]) was at least 20 µM and the Kd (HLA-A*02:16; [7]) was at least 20 µM. For the same sequence, the Kd (HLA-A*02:19; [7]) was at least 20 µM, the Kd (HLA-A*03:01; [7]) was at least 20 µM and the Kd (HLA-A*69:01 [3]; [7]) was at least 20 µM. It also gave a Kd (HLA-B*15:17; [7]) of 0.18 µM, a Kd (HLA-B*27:03; [7]) of at least 20 µM and a Kd (HLA-B*39:01; [7]) of at least 20 µM. For the same sequence, the Kd (HLA-B*46:01; [7]) was at least 20 µM.
With RQVWWKALL the Kd (HLA-B*48:01; source organism: Vibrio cholerae MAK 757) was 0.0226 µM.
For TKAGMAQYL, the Kd (HLA-A*02:01 [2]; [8]) was at least 20 µM, the Kd (HLA-A*02:03; [8]) was at least 20 µM and the Kd (HLA-A*02:11; [8]) was at least 20 µM. The Kd (HLA-A*02:12; [8]) was at least 20 µM, the Kd (HLA-A*02:16; [8]) was at least 20 µM and the Kd (HLA-A*02:19; [8]) was at least 20 µM. It also gave a Kd (HLA-A*03:01; [8]) of at least 20 µM, a Kd (HLA-A*24:03; [8]) of at least 20 µM and a Kd (HLA-A*26:01; [8]) of at least 20 µM. It also gave a Kd (HLA-A*29:02) of at least 20 µM, a Kd (HLA-A*69:01 [3]; [8]) of at least 20 µM and a Kd (HLA-B*15:01; [8]) of at least 20 µM. For the same sequence, the Kd (HLA-B*15:17; [8]) was at least 20 µM, the Kd (HLA-B*18:01; [8]) was at least 20 µM and the Kd (HLA-B*27:03; [8]) was at least 20 µM. For the same sequence, the Kd (HLA-B*46:01; [8]) was at least 20 µM, the Kd (HLA-B*51:01; [8]) was at least 20 µM and the Kd (HLA-B*57:01; [8]) was at least 20 µM.
Work on FTASVSTVV yielded a Kd (HLA-C*05:01) of 3.95 µM, a Kd (HLA-A*02:01 [1]; [9]) of 0.0027 µM and a Kd (HLA-A*69:01 [4]) of at most 0.0001 µM. The Kd (HLA-B*15:42; [9]) was at least 5 µM, the Kd (HLA-B*45:06; [9]) was at least 5 µM and the Kd (HLA-B*83:01; [9]) was at least 5 µM. The Kd (HLA-C*04:01) was at least 5 µM.
MWHVTRGAF showed a Kd (HLA-C*15:02; [10]) of at least 20 µM, a Kd (HLA-B*15:42; [10]) of at least 5 µM and a Kd (HLA-B*45:06; [10]) of at least 5 µM. For the same sequence, the Kd (HLA-B*83:01; [10]) was at least 5 µM and the Kd (HLA-C*14:02) was 0.0028 µM.
Sequence LVTGAGSGF has a Kd (HLA-A*02:01 [2]; [11]) of at least 20 µM, a Kd (HLA-A*02:03; [11]) of at least 20 µM and a Kd (HLA-A*02:11; [11]) of at least 20 µM. It also gave a Kd (HLA-A*02:12; [11]) of at least 20 µM, a Kd (HLA-A*02:16; [11]) of at least 20 µM and a Kd (HLA-A*02:19; [11]) of at least 20 µM. It also gave a Kd (HLA-A*03:01; [11]) of at least 20 µM, a Kd (HLA-A*24:03; [11]) of at least 20 µM and a Kd (HLA-A*26:01; [11]) of at least 20 µM. For the same sequence, the Kd (HLA-A*68:02; [11]) was at least 20 µM, the Kd (HLA-A*69:01 [3]; [11]) was at least 20 µM and the Kd (HLA-B*15:17; [11]) was 0.148 µM. For the same sequence, the Kd (HLA-B*18:01; [11]) was at least 20 µM, the Kd (HLA-B*27:03; [11]) was at least 20 µM and the Kd (HLA-B*39:01; [11]) was at least 20 µM. It also gave a Kd (HLA-B*46:01; [11]) of at least 20 µM and a Kd (HLA-B*57:01; [11]) of at least 20 µM.
FPLWNTEKI showed a Kd (HLA-A*02:01 [2]; [12]) of at least 20 µM, a Kd (HLA-A*02:03; [12]) of at least 20 µM and a Kd (HLA-A*02:12; [12]) of at least 20 µM. It also gave a Kd (HLA-A*02:16; [12]) of at least 20 µM, a Kd (HLA-A*02:19; [12]) of at least 20 µM and a Kd (HLA-A*03:01; [12]) of at least 20 µM. It also gave a Kd (HLA-A*26:01; [12]) of at least 20 µM, a Kd (HLA-B*15:01; [12]) of at least 20 µM and a Kd (HLA-B*18:01; [12]) of at least 20 µM. For the same sequence, the Kd (HLA-B*27:03; [12]) was at least 20 µM, the Kd (HLA-B*46:01; [12]) was at least 20 µM and the Kd (HLA-B*51:01; [12]) was 0.071 µM. It also gave a Kd (HLA-B*57:01; [12]) of at least 20 µM.
